Test results taken from paper PMC8809517, “Cofactor-independent RNA editing by a synthetic S-type PPR protein”.
Residue numbers refer to the chain shown, from its start.

T1: GFP-9S library array, motif 4 ND N98F;D124M (synthetic construct, N98F;D124M)
T1 chain: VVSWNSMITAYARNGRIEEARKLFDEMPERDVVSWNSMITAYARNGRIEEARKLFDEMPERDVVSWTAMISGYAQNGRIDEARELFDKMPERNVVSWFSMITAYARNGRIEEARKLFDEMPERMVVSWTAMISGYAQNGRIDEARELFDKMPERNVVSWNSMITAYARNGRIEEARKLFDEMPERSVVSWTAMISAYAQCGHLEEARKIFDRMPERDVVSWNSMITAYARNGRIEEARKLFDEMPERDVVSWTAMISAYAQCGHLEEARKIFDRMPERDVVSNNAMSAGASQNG

T2: GFP-9S library array, motif 4 ND N98C;D124M (synthetic construct, N98C;D124M)
T2 chain: T1 chain with F98C

T3: GFP-9S library array, motif 4 ND N98G;D124V (synthetic construct, N98G;D124V)
T3 chain: T1 chain with F98G, M124V

T4: GFP-9S library array, motif 4 ND N98W;D124R (synthetic construct, N98W;D124R)
T4 chain: T1 chain with F98W, M124R

T5: GFP-9S library array, motif 4 ND N98T;D124P (synthetic construct, N98T;D124P)
T5 chain: T1 chain with F98T, M124P


What was measured:
Assay in all cases: high-throughput RNA pulldown from lysate on Ni-NTA beads; HRP: 50 mM Tris pH 8, 150 mM NaCl, 1 mM beta-mercaptoethanol, 50 ug/ml BSA, 3 ug/ml yeast RNA, 0.5% heparin; ITC and FP: Tris pH 8, 200 mM KCl, 5% glycerol; MST: 50 mM Tris pH 8, 200 mM NaCl, 1 mM DTT, BSA, heparin, 0.05% Tween 20
Conditions in all cases: tags: N-terminal His-eGFP
[1] = target: T1, GFP-9S library array, motif 4 ND …
[2] = target: T2, GFP-9S library array, motif 4 ND …
[3] = target: T3, GFP-9S library array, motif 4 ND …
[4] = target: T4, GFP-9S library array, motif 4 ND …
[5] = target: T5, GFP-9S library array, motif 4 ND …

Binder	Kd ([1]; label: 5' Cy5)	Kd ([2]; label: 5' Cy5)	Kd ([3]; label: 5' Cy5)	Kd ([4]; label: 5' Cy5)	Kd ([5]; label: 5' Cy5)	Kd ([1]; label: 5' IRDye 800CW)	Kd ([2]; label: 5' IRDye 800CW)	Kd ([3]; label: 5' IRDye 800CW)	Kd ([4]; label: 5' IRDye 800CW)	Kd ([5]; label: 5' IRDye 800CW)
AUUACACGUGA (ssRNA) [Cy5-rpoA]	76.7 nM	90.5 nM	119 nM	113 nM	92.4 nM	–	–	–	–	–
AUUAGACGUGA (ssRNA) [Cy5-rpoA-G]	69.1 nM	113 nM	118 nM	90.3 nM	90.3 nM	–	–	–	–	–
AUUAAACGUGA (ssRNA) [IR-rpoA-A]	–	–	–	–	–	230 nM	266 nM	313 nM	206 nM	107 nM
AUUAUACGUGA (ssRNA) [IR-rpoA-U]	–	–	–	–	–	194 nM	179 nM	234 nM	317 nM	113 nM
